{"source": "patent US20130330342A1", "about": "(CENTRE NATIONAL DE LA RECHERCHE SCIENTIFIQUE CNRS, published 2013)", "target": "T1, CD8-Stop (UniProt P01732 22-203, limits assumed)", "T1 construct": "domain: CD8 receptor devoid of cytoplasmic domain; Control expressed in HeLa or 293T cells; also called CD8 protein devoid of cytoplasmic domain; control CD8-Stop protein", "T1 sequence (P01732 22-203 limits assumed)": "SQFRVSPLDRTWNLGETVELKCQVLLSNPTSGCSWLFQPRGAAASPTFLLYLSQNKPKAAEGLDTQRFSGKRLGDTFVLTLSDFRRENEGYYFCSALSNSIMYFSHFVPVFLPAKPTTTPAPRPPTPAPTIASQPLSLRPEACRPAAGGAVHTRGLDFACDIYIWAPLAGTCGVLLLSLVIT", "assay": "co-immunoprecipitation from 293T cells (anti-CD8 IP, anti-c-myc blot)", "description": "The direct recognition of Nef by sdAb Nef19 was explored at the cell level by means of coimmuno-precipitation experiments. […] These constructs have been previously described (Janvier et al., 2003a,b; Madrid et al., 2005). The same type of experiment was also carried out on cells coexpressing the sdAb and the CD8 protein devoid of cytoplasmic domain (CD8-Stop) used as a control. 24 h after transfection, the cells were lyzed in a buffer containing 100 mM of (NH₄)₂SO₄, 20 mM of Tris (pH 7.5), 10% of glycerol, 1% of IGEPAL and a cocktail of protease inhibitors (Roche). The cell lyzate (600 μg of total proteins) was incubated for 1 h at 4° C. with 3 μg of the anti-CD8 Ab (32M4, Santa Cruz) and 30 μl of beads coated with protein A-sepharose. The immunoprecipitates were then analyzed by immunoblotting using an anti-CD8 Ab (H160, Santa Cruz) and an anti-c-myc Ab (9E10).", "data": [{"binder": "sdAb Nef19 (VHH, Llama VHH from the immune library; The soluble form carries C-terminal c-myc and 6His tags and is detected with mAb 9E10; also called sdAb Nef19P; sdAb Nef19C) VHH: EVQLVESGGGLVQPGGSLKLSCAASGSIFRANAMRWYRQAPGKQREWVASVISDDFTDYVDSVRGRFTISKDNAQNTVYLQMNSLKPEDTAVYYCNAQLGGVNYWGQGTQVTVSS", "values": [{"measurement": "binding result", "result": "no binding"}]}]}
